Starred links: 1 amine or outer side, 2 acyl side, 3 side chain; linkers in the order of their positions; H or OH if unused. Positions of bridges follow the written chain, without caps; N, C: chain ends. *: point of attachment. C20 diacid = O=C(O)CCCCCCCCCCCCCCCCCCC(=O)*; 19‑carboxyheptadecanoyl = not defined here; γGlu = O=C(O)[C@H](CCC(=O)[*:2])N[*:1]; AEEA = NCCOCCOCC(=O)O
T1: human amylin 3(a) receptor (human calcitonin receptor + RAMP-3) (human, UniProt P30988 25-474; O60896 24-148)
T1 sequence (looked up) 1: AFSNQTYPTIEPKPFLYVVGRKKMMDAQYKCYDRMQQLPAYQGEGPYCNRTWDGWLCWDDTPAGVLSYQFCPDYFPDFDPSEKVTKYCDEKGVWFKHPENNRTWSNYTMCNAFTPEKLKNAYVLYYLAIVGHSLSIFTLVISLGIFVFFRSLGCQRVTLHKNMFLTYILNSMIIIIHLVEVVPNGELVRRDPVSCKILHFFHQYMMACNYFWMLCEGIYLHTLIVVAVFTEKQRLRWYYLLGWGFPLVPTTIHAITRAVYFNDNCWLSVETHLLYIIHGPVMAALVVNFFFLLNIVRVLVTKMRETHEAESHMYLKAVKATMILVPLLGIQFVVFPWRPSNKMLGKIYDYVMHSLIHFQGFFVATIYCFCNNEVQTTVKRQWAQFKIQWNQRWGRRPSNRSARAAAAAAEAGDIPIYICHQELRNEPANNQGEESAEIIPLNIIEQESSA
T1 sequence (looked up) 2: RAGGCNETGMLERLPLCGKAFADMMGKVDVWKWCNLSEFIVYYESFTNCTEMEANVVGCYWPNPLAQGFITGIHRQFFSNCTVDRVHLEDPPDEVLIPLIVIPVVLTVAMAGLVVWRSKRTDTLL

T2: human calcitonin (a) receptor (human, UniProt P30988 25-474)
T2 sequence (looked up): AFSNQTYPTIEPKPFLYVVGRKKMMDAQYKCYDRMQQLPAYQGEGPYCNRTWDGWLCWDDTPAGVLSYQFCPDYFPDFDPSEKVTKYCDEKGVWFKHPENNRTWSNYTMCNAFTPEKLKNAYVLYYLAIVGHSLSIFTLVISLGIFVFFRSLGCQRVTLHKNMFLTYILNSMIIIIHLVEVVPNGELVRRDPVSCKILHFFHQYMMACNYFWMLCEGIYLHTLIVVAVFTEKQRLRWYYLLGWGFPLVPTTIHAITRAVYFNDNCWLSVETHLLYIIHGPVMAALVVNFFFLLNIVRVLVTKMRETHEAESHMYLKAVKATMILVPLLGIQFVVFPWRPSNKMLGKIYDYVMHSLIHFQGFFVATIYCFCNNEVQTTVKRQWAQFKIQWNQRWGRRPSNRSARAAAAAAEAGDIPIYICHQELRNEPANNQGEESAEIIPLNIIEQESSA


Assays:
[1] = target: T1, human amylin 3(a) receptor (human …); test: cell-based or functional assay
[2] = target: T2, human calcitonin (a) receptor; test: cell-based or functional assay

Amylin receptor human EC50 [1]	CTa receptor human EC50 [2]	Binder
0.938 nM	1.08 nM	{19‑carboxyheptadecanoyl-γGlu-AEEA-AEEA}-HCNTATCATQRLAEFLHHSSSNFGPILPPTNVGSHTY-NH2 (disulfide 2-7; reading uncertain; also: printed as N-alpha-[2-(2-{2-[2-(2-{2-[(S)-4-Carboxy-4-(19-carboxyheptadecanoylamino)butyrylamino]ethoxy}ethoxy)acetylamino]ethoxy}ethoxy)acetyl]-[His1,Glu14,His17,Ser21,His35]-pramlintide)
0.063 nM	0.061 nM	{C20 diacid-γGlu}-ERECNTATCATQRLANFLVHSSNNFGPILPPTNVGSNTP-NH2 (disulfide 4-9; SMILES CC[C@H](C)[C@H](NC(=O)[C@@H]1CCCN1C(=O)CNC(=O)[C@H](Cc1ccccc1)NC(=O)[C@H](CC(N)=O)NC(=O)[C@H](CC(N)=O)NC(=O)[C@H](CO)NC(=O)[C@H](CO)NC(=O)[C@H](Cc1c[nH]cn1)NC(=O)[C@@H](NC(=O)[C@H](CC(C)C)NC(=O)[C@H](Cc1ccccc1)NC(=O)[C@H](CC(N)=O)NC(=O)[C@H](C)NC(=O)[C@H](CC(C)C)NC(=O)[C@H](CCCNC(=N)N)NC(=O)[C@H](CCC(N)=O)NC(=O)[C@@H](NC(=O)[C@H](C)NC(=O)[C@@H]1CSSC[C@H](NC(=O)[C@H](CCC(=O)O)NC(=O)[C@H](CCCNC(=N)N)NC(=O)[C@H](CCC(=O)O)NC(=O)CC[C@H](NC(=O)CCCCCCCCCCCCCCCCCCC(=O)O)C(=O)O)C(=O)N[C@@H](CC(N)=O)C(=O)N[C@@H]([C@@H](C)O)C(=O)N[C@@H](C)C(=O)N[C@@H]([C@@H](C)O)C(=O)N1)[C@@H](C)O)C(C)C)C(=O)N[C@@H](CC(C)C)C(=O)N1CCC[C@H]1C(=O)N1CCC[C@H]1C(=O)N[C@H](C(=O)N[C@@H](CC(N)=O)C(=O)N[C@H](C(=O)NCC(=O)N[C@@H](CO)C(=O)N[C@@H](CC(N)=O)C(=O)N[C@H](C(=O)N1CCC[C@H]1C(N)=O)[C@@H](C)O)C(C)C)[C@@H](C)O) [N-alpha-[(S)-4-Carboxy-4-(19-carboxynonadecanoylamino)butyryl]-Glu-Arg-[Glu1,Pro37]-pramlintide]
0.156 nM	0.169 nM	{C20 diacid-γGlu}-KCNTATCATQRLAEFLHHSSQNFGPILPPTNVGSHTY-NH2 (disulfide 2-7; SMILES CC[C@H](C)[C@H](NC(=O)[C@@H]1CCCN1C(=O)CNC(=O)[C@H](Cc1ccccc1)NC(=O)[C@H](CC(N)=O)NC(=O)[C@H](CCC(N)=O)NC(=O)[C@H](CO)NC(=O)[C@H](CO)NC(=O)[C@H](Cc1c[nH]cn1)NC(=O)[C@H](Cc1c[nH]cn1)NC(=O)[C@H](CC(C)C)NC(=O)[C@H](Cc1ccccc1)NC(=O)[C@H](CCC(=O)O)NC(=O)[C@H](C)NC(=O)[C@H](CC(C)C)NC(=O)[C@H](CCCNC(=N)N)NC(=O)[C@H](CCC(N)=O)NC(=O)[C@@H](NC(=O)[C@H](C)NC(=O)[C@@H]1CSSC[C@H](NC(=O)[C@H](CCCCN)NC(=O)CC[C@H](NC(=O)CCCCCCCCCCCCCCCCCCC(=O)O)C(=O)O)C(=O)N[C@@H](CC(N)=O)C(=O)N[C@@H]([C@@H](C)O)C(=O)N[C@@H](C)C(=O)N[C@@H]([C@@H](C)O)C(=O)N1)[C@@H](C)O)C(=O)N[C@@H](CC(C)C)C(=O)N1CCC[C@H]1C(=O)N1CCC[C@H]1C(=O)N[C@H](C(=O)N[C@@H](CC(N)=O)C(=O)N[C@H](C(=O)NCC(=O)N[C@@H](CO)C(=O)N[C@@H](Cc1c[nH]cn1)C(=O)N[C@H](C(=O)N[C@@H](Cc1ccc(O)cc1)C(N)=O)[C@@H](C)O)C(C)C)[C@@H](C)O) [N-alpha-[(S)-4-Carboxy-4-(19-carboxynonadecanoylamino)butyryl]-[Glu14,His17,Gln21,His35)-pramlintide]
0.434 nM	0.277 nM	{19‑carboxyheptadecanoyl-γGlu-AEEA-AEEA}-KCNTATCATQRLAEFLHHSSSNFGPILPPTNVGSHTY-NH2 (disulfide 2-7; reading uncertain; also: printed as N-alpha-[2-(2-{2-[2-(2-{2-[(S)-4-Carboxy-4-(19-carboxyheptadecanoylamino)butyrylamino]ethoxy}ethoxy)acetylamino]ethoxy}ethoxy)acetyl]-[Glu14,His17,Ser21,His35]-pramlintide)

Reference: patent publication US20130005646A1 (Novo Nordisk, published 2013)
